The results in this text go back to patent publication US12448434B2, “Antibodies specifically recognizing Pseudomonas PcrV and uses thereof” (priority 2019, dated 2025).

The subject of data set [1] is P. aeruginosa (PA103 strain). Briefly: Prophylactic mouse acute pneumonia model, organ burden. The class given is in vivo, BALB/c mice. To be noted: 10 mg/kg i.p. 24 hr before infection, 0.5*LD90. The procedure:
In a prophylactic model, 7-8 week old BALB/c mice (Vital River Laboratory) were administered with antibodies or PBS intraperitoneally (i.p.) 24 hr before infection, at 10 mg/kg mouse weight. To induce acute pneumonia, the BALB/c mice were intranasally inoculated with P. aeruginosa (PA103 strain) suspended in a 40 μl inoculum at half the lethal dose (0.5*LD90; 3×10^5 CFU). 24 hours post-infection, mice were euthanized, where the lungs, spleens and kidneys were extracted, homogenized and diluted before plating on agar to measure the viable bacteria units (in CFU), which represented the P. aeruginosa burden in the respective organ sample.

The next data set has as its system BV particles. Kind of data set: Cross-reactivity to BV particles by ELISA. The class given is binding. To be noted: FIG. 3. The procedure: Cross-reactivity to BV particles: Using ELISA, optimized antibodies 7C1, 7B1, 8C1, 6D10, and reference antibodies V2L2-MD and Mab166 were tested for cross-reactivity to BV particles according to the method described previously (See Hötzel I, et al, 2012, mAbs 4:6, 753-760).
(In general: In an ELISA, binding on a coated surface is turned into a signal by an enzyme label.)

Another data set relates to PcrV-negative A549 cells. Kind of data set: Cross-reactivity to PcrV-negative A549 cells by FACS. The data set is classed as cell-based, human. Particulars: FIGS. 4A-4E, compared with no antibody and V2L2-MD. The procedure: Cross-reactivity to A549 cells: Using FACS, parental antibody 13-42, optimized antibodies 7C1, 7B1, 8C1, 6D10 as well as V2L2-MD were tested for cross-reactivity to PcrV-negative A549 cells.
(A flow cytometer gives signals particle by particle.)

The conditions of data set [2]: rat, in vivo, iv. On the procedure:
Pharmacokinetic profile in rat: 40 healthy adult rats (about 0.2 kg by weight) were equally into two groups, where each group registered similar average weight. One group was injected intravenously with 30 mg/kg of V2L2-MD, 7C1, 7B1, 8C1 or 6D10 and the other group was injected intravenously with 3 mg/kg of V2L2-MD, 7C1, 7B1, 8C1 or 6D10. Blood was collected at […], and subsequently at 0 hour, 0.5 hour, 2 hour, 8 hour, 1 day, 3 days, 7 days, 11 days, 17 days, 23 days, 31 days, 41 days and 52 days after injection. After centrifugation, the plasma was used for analyzing antibody concentration using ELISA. For the ELISA experiment, synthetic PcrV was used to coat the wells of a 96-well plate. On the following day, after washing with PBST, blocking with 200 μL PBS-milk for an hour, and another wash with PBST, the plasma was added and incubated for an hour at 37° C. The plate was washed with 0.1% TBST for 6 times before 100 μL of Goat-anti-human Fc antibody-AP (1:3000 in PBS) was added to each well and incubated for an hour. After washing with 0.1% TBST for 6 times, 50 μL of pNPP was added to each well and color was developed for 10-20 minutes at 37° C. The signals were read by a microplate reader at 410 nm.

In data set [3] the test system is PcrV mutants (with mutations at position 225). Briefly: Binding to PcrV mutants with mutations at position 225. Also on record: species or system Pseudomonas aeruginosa. To be noted: data not shown. On the procedure: To further illustrate the optimized antibodies could broadly neutralize P. aeruginosa strains, the abilities of these antibodies to bind various forms of PcrV mutants were tested. Briefly, 100 PcrV sequences were randomly selected from Genebank database. In contrast to the wild type sequence as shown in SEQ ID No: 71, 13% of the selected sequences contained R, G, or K at position 225 (as compared of S in the wild type sequence SEQ No: 71), which was the main mutation around the epitope of 7B1.
These findings further illustrate that the optimized anti-PcrV antibodies could neutralize a broad spectrum of P. aeruginosa strains, which might express various forms of PcrV mutants.

In another data set the test system is PcrV. Briefly: BIACORE binding to PcrV. Also on record: species or system Pseudomonas aeruginosa. Particulars: data not shown. The procedure:
The association constant (ka), dissociation constant (kd) and the equilibrium dissociation constant (kD) for binding of optimized anti-PcrV mAb clones 7B1, 7C1, 8C1, 6D10 and reference antibody V2L2-MD to PcrV were tested by BIACORE (GE company).

The subject of data set [4] is P. aeruginosa (PA103 strain). Kind of data set: Therapeutic mouse acute pneumonia model, survival. The data set is classed as in vivo, BALB/c mice. Particulars: i.v. 1 h post-infection, 1 mg/kg or 10 mg/kg; 1*LD90; 6 days. The procedure: In a therapeutic model, to induce acute pneumonia, 7-8 week old BALB/c mice (Vital River Laboratory) were intranasally inoculated with P. aeruginosa (PA103 strain) suspended in a 40 μl inoculum at a lethal dose (1*LD90=8×10^5 CFU). Antibodies or PBS were administered intravenously (i.v.) at 1 h post-infection, at a dose of 1 mg/kg or 10 mg/kg mouse weight. Mouse survival was recorded for up to 6 days post-infection.

Data set [5] relates to Strain 57/66(O6) P. aeruginosa. Briefly: RBC lysis inhibition assay, strain 57/66(O6). The class given is cell-based, Pseudomonas aeruginosa. To be noted: Table 7. On the procedure:
Monoclonal scFv antibodies were selected and assessed for biological activity by RBC lysis assay. Briefly, red blood cells (RBCs) were prepared from fresh whole human or rabbit blood by centrifugation, supplemented with EDTA and rinsed with multiple phosphate-buffered saline (PBS) washes. Washed RBCs (2.5% [vol/vol] final) in Dulbecco's modified Eagle's medium (DMEM) plus 10% fetal bovine serum (FBS) (Gibco) and purified anti-PcrV antibodies diluted in PBS were combined into wells of a round-bottom 96-well plate. Strain 57/66(O6) P. aeruginosa was grown to mid-log phase in 2× YT medium (Oxford), harvested by centrifugation, and resuspended in DMEM-fetal bovine serum (FBS) at an optical density at 600 nm (OD600) of 0.15. Ten microliters of bacterial suspension was added to the RBC-antibody mixture, mixed by agitation, and incubated for 3 hours at 37° C. and 5% CO2. The plates were briefly centrifuged (1000 rpm, 1 min) to pellet the intact RBCs, the supernatants transferred to a flat-bottom 96-well plate, and the OD405 was measured to detect any lysis, from which the relative amount of lysis inhibition was calculated and plotted. IC50 values for the antibodies were also determined.
The ability of optimized anti-PcrV mAb clones 7B1, 7C1, 8C1, 6D10, 6A10, 5B3, 3B12, 4A10, 2B1, 7B2, 3H10, 3G3, 9B12, 3A9, 2D3, 7B1-1F5, to inhibit red blood cell lysis was compared to the parental 13-42 mAb and the reference antibody V2L2-MD. RBC lysis inhibition assay was performed as described in Example 1.
The optimized anti-PcrV mAb clones 7C1, 8C1, and 7B1 were further analyzed for their abilities to inhibit red blood cell lysis by various strains of P. aeruginosa, namely strains O1-52/66, O16-177/81, and O6-57/66, as compared to the parental 13-42 mAb and the reference antibody V2L2-MD. RBC lysis inhibition assay was performed as described in Example 1.

Changes are numbered by the printed parent chain.

B1: 6D10: optimized anti-PcrV mAb clone; VH SEQ ID NO: 61, VL SEQ ID NO: 65 (antibody, V domains shown)
VH: EVQLLESGGGLVQPGGSLRLSCTASGFTFSDYPMSWVRQAPGKGLDWVSGISESGGSTNYADSVKGRFSTSRDNSKSTLYLDMNSLRAEDTAIYYCAKGRFSTDSSHFYRAVYGMDVWGQGTAVTVSS
VL: DIQLTQSPSSLSASVGDRVTITCRASQGISSYLAWYQQKPGKAPKLLIYAASTLQSGVPSRFSGSGSGTDFTLTISSLQPEDFATYYCQQLSSYPLSFGGGTKVEIK
As to B1, in data set [1] (FIG. 8B), the “reduction of organ burden in the lung, spleen and kidney relative to HIV-10E8” value is “higher efficacy in reducing organ burden”; the “reduction of organ burden in the lung, spleen and kidney relative to V2L2-MD” value was “comparable efficacy in reducing organ burden”. Also, in the data set with BV particles, the “non-specific binding to BV particles” value was “low levels of non-specific binding”. Also, the “binding to PcrV-negative A549 cells” value with PcrV-negative A549 cells is recorded as “similarly low levels of A549 binding”. Further, the “half-lives relative to reference antibody V2L2-MD” value in data set [2] is “comparable to or longer than that of reference antibody V2L2-MD”. For the same molecule, in data set [3], the “binding to PcrV mutants with R, G or K at position 225” value is reported as “strongly bind these mutants”. Moreover, in the data set with PcrV, the “association and dissociation kinetics in PcrV binding (ka and kd values)” value was “comparable association and dissociation kinetics”. Besides, the “survival improvement relative to V2L2-MD” value in data set [4] is reported as “survival improvement comparable to that of V2L2-MD”.

B2: 2D3: optimized anti-PcrV mAb clone; VH SEQ ID NO: 53, VL SEQ ID NO: 65 (antibody, V domains shown)
VH: B1 VH with Y32N, P33H, N59Y, T103Y, S105T, S106R, Y109F
VL: B1 VL
Regarding B2, the “RBC lysis assay IC50” value in data set [5] is 0.05 µg/mL.

B3: 7B1-1F5: optimized anti-PcrV mAb clone; VH SEQ ID NO: 62, VL SEQ ID NO: 70 (antibody, V domains shown)
VH: B1 VH with Y32N, P33Y, G50V, D104L, Y109F
VL: B1 VL with L11F, V15T, L46V, D70E, S92K, S97T, V104L
Regarding B3, the “RBC lysis assay IC50” value in data set [5] was 0.19 µg/mL.

B4: 13-42: lead parental full-length human IgG1 anti-PcrV antibody; VH SEQ ID NO: 48, VL SEQ ID NO: 65 (antibody, V domains shown)
VH: B1 VH with Y60D, S102C, D104N, H107C, Y109F
VL: B1 VL
In the case of B4, the “reduction of organ burden in the lung relative to V2L2-MD” value in data set [1] (24 hours post-infection, FIG. 8A) is reported as “better efficacy in reducing organ burden in the lung”. In the data set with PcrV-negative A549 cells, the “binding to PcrV-negative A549 cells” value was “similarly low levels of A549 binding”.

B5: 9B12: optimized anti-PcrV mAb clone; VH SEQ ID NO: 64, VL SEQ ID NO: 67 (antibody, V domains shown)
VH: B1 VH with Y32N, G50V, Y60D, D104N, S106D
VL: B1 VL with S97T
On to B5, for which, in data set [5], the “RBC lysis assay IC50” value came out at 0.07 µg/mL.
